Read-outs that look alike come from different tables or passages of the source.

Assay [1] has as its target IL-13Rα1 monomer (IL-13Rα1 extracellular domain) (human) (UniProt P78552). Put plainly: SPR, IL-13Rα1 immobilised.
Assay [2] has the same target. Briefly: SPR, IL-13Rα1 immobilised, 1:1 model.
For assay [3], the target named is IL-13Rα1 + IL-4R co-immobilised on one sensor chip surface (high affinity receptor) (human) (UniProt P78552). Put plainly: SPR, IL-13Rα1 and IL-4R co-immobilised, against IL-13Rα1 alone.
Sequence of IL-13Rα1 + IL-4R co-immobilised on one sensor chip surface (high affinity receptor) (human) (P24394 26-232): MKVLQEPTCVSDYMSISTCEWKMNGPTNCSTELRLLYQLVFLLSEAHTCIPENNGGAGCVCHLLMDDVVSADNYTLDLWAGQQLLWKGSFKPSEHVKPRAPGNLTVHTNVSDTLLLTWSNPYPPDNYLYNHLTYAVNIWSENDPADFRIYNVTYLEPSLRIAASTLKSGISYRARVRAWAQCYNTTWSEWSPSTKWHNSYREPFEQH
The target in assay [4] is Cy5-IL-13Rα1 (Cy5 labeled IL-13Rα1) (human) (UniProt P78552). Put plainly: TR-FRET assay 1, competition with 10 nM Eu-IL-13 for 10 nM Cy5-IL-13Rα1.
Assay [5] concerns the target Cy5-IL-13Rα1 plus IL-4R (500 nM) in solution (human) (UniProt P78552). Put plainly: TR-FRET assay 1, competition with 10 nM Eu-IL-13, 10 nM Cy5-IL-13Rα1, 500 nM IL-4R.
In assay [6] the target is Cy5-IL-13Rα1 (Cy5 labeled IL-13Rα1) (human) (UniProt P78552). Put plainly: TR-FRET assay 1, competition with Eu-IL-13 for Cy5-IL-13Rα1, Kd calculated from IC50.
Assay [7] concerns the target Cy5-IL-13Rα1 plus IL-4R (500 nM) in solution (human) (UniProt P78552). Put plainly: TR-FRET assay 1, competition with Eu-IL-13, with 500 nM IL-4R, Kd calculated from IC50.
Assay [8] concerns the target IL-13Rα1 + IL-4R co-immobilised on one sensor chip surface (high affinity receptor) (human) (UniProt P78552). Put plainly: SPR, IL-13Rα1 and IL-4R co-immobilised, heterogeneous ligand model, component 2 (high affinity).
The target is the same in assay [9]. Put plainly: SPR, IL-13Rα1 and IL-4R co-immobilised, heterogeneous ligand model, component 1 (lower affinity).
The target is the same in assay [10]. Put plainly: SPR, IL-13Rα1 and IL-4R co-immobilised, heterogeneous ligand model, component 2 (high affinity); column head misprinted 'Kd 2 × 10^6'.
Assay [11] deals with IL-13R110Q/IL-13Rα1 binary complex (human) (UniProt P35225). Put plainly: SPR, IL-13Rα1 immobilised, 8 nM IL-13R110Q in buffer, IL-4R injected, 1:1 model.
Sequence of IL-13R110Q/IL-13Rα1 binary complex (human) (P35225 35-146, one chain of several): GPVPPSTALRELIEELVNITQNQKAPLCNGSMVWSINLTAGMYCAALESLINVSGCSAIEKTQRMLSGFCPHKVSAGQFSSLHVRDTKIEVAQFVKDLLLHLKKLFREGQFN
Assay [12] shares this target. The description is as above. This is another data set of the same source.
For assay [13], the target named is T1, Eu-IL-13 (europium chelate labeled IL-13) (human, UniProt P35225 35-146, limits assumed, europium chelate (Eu) label, directly labeled; site not stated).
T1 construct: also called Eu-labeled IL-13
T1 sequence (P35225 other isoform, or with tags, fused parts or gaps limits assumed, form in doubt): as the sequence (P35225 35-146, one chain of several) above, with Q110R counted along it
Briefly: TR-FRET assay 1, direct: Cy5-IL-13Rα1 titrated into 10 nM Eu-IL-13, no IL-4R. Here is the method:
(§1) All TR-FRET experiments were performed on a 384-well black plate (Corning Costar, Acton, Mass.) in 20 μL final volume of PBS plus 0.1% BSA. For example, excitation and emission conditions for TR-FRET assay 1 and 2 were 345 nm and 665 nm, respectively. All TR-FRET measurements were taken using an Envision plate reader (Perkin Elmer) using the TR-FRET mode.
Binding between IL-13 and IL-13Rα¹ was analyzed using Eu-IL-13 (Eu=Europium chelate, FRET donor) and Cy5-IL-13Rα1 (Cy5=Cyanine dye, FRET acceptor) (schematic shown in FIG. 3) described in Example 5. Affinity measurements were performed by adding various concentrations of Cy5-IL-13Rα1 in the presence of 10 nM Eu-IL-13 with and without 500 nM IL-4R.

Assay [14] deals with T1, Eu-IL-13 (europium chelate labeled …). Briefly: TR-FRET assay 1, competition with 10 nM Cy5-IL-13Rα1 for 10 nM Eu-IL-13, no IL-4R. Here is the method: as §1
(§2) Assays were performed as described in Example 5. Competition experiments were performed by adding various concentrations of unlabeled IL-13, IL-13R110Q, or IL-13Rα1 to the Eu-IL-13 (10 nM)/Cy5-IL-13Rα1 (10 nM) binary complex with or without IL-4R (500 nM).
(§3) To confirm the dissociation constant of Cy5-IL-13Rα1, a competition experiment was performed using unlabeled IL-13Rα1.

Assay [15] has as its target T2, Eu-IL-13 plus IL-4R (500 nM) in solution (human, UniProt P35225 35-146; P24394 26-232, limits assumed, europium chelate label; site not stated).
T2 construct: The partners of IL-13Rα1 in the ternary format of TR-FRET assay 1
Briefly: TR-FRET assay 1, competition with 10 nM Cy5-IL-13Rα1 for 10 nM Eu-IL-13, with 500 nM IL-4R. Here is the method:
as §1, §2, §3

Sequence of Cy5-IL-13Rα1 plus IL-4R (500 nM) in solution (human) (P24394 26-232): as the sequence (P24394 26-232) above
T2 sequence (P35225 other isoform, or with tags, fused parts or gaps limits assumed, form in doubt, chain 1 of 2): as the sequence (P35225 35-146, one chain of several) above, with Q110R counted along it
T2 sequence (P24394 26-232 limits assumed, form in doubt, chain 2 of 2): as the sequence (P24394 26-232) above

“IL-13R110Q (from UniProt P35225 35-146) (ligand)” showed a t½ (decay of binding) in assay [1] of 50 s. For the same molecule, the equilibrium dissociation constant (Kd) was 8.93 nM in [2]; 6.7 nM in assay [6]; 0.3 nM in assay [7]; 0.53 nM in [8]; 14.5 nM in [9]. Further, the values for the koff in [2], in [8] and in assay [9] were 0.015 s⁻¹, 0.002 s⁻¹ and 0.018 s⁻¹, respectively. In addition, the kon in assay [2] was found to be 1.68e+06 M⁻¹ s⁻¹; in [9], 1.24e+06 M⁻¹ s⁻¹; in assay [10], 3.77e+06 M⁻¹ s⁻¹. In [3], the fold lower Kd than to IL-13Rα1 alone was found to be 17 fold. Further, the concentration for half-maximal inhibition (IC50) in assay [4] amounted to 27 nM; in [5], 12 nM.

In assay [11], “soluble form of carrier-free human IL-4Rα monomer (R&D Systems) (from UniProt P24394 26-232) (receptor)” had a dissociation constant (Kd) of 115 nM, a koff of 0.0051 s⁻¹ and a kon of 44000 M⁻¹ s⁻¹. The molecule also returned a dissociation rate constant (koff) in assay [12] of 0.005 s⁻¹.

B1: Cy5-IL-13Rα1 (Cy5 labeled IL-13Rα1) (receptor, human, UniProt P78552 22-343, looked up)
chain: GGGGAAPTETQPPVTNLSVSVENLCTVIWTWNPPEGASSNCSLWYFSHFGDKQDKKIAPETRRSIEVPLNERICLQVGSQCSTNESEKPSILVEKCISPPEGDPESAVTELQCIWHNLSYMKCSWLPGRNTSPDTNYTLYYWHRSLEKIHQCENIFREGQYFGCSFDLTKVKDSSFEQHSVQIMVKDNAGKIKPSFNIVPLTSRVKPDPPHIKNLSFHNDDLYVQWENPQNFISRCLFYEVEVNNSQTETHNVFYVQEAKCENPEFERNVENTSCFMVPGVLPDTLNTVRIRVKTNKLCYEDDKLWSNWSQEMSIGKKRNST
modifications: Cy5 label, directly labeled; site not stated
notes: extracellular domain; also called IL-13R-Cys5; Cy5-IL-13RI1
Regarding B1, the half-maximal effective concentration (EC50) in [13] was found to be 10 nM.

B2: IL-13Rα1 monomer (IL-13Rα1 extracellular domain) (receptor, human, UniProt P78552 22-343, looked up)
chain: GGGGAAPTETQPPVTNLSVSVENLCTVIWTWNPPEGASSNCSLWYFSHFGDKQDKKIAPETRRSIEVPLNERICLQVGSQCSTNESEKPSILVEKCISPPEGDPESAVTELQCIWHNLSYMKCSWLPGRNTSPDTNYTLYYWHRSLEKIHQCENIFREGQYFGCSFDLTKVKDSSFEQHSVQIMVKDNAGKIKPSFNIVPLTSRVKPDPPHIKNLSFHNDDLYVQWENPQNFISRCLFYEVEVNNSQTETHNVFYVQEAKCENPEFERNVENTSCFMVPGVLPDTLNTVRIRVKTNKLCYEDDKLWSNWSQEMSIGKKRNST
notes: extracellular domain; Expressed and purified as in Yang et al. 2006; also called IL-13RI1; IL-13R1
For the molecule B2, the figures for the IC50 in assay [14] and in [15] were 20 nM and 11 nM, respectively.

Source of the values: patent publication US20090156421A1 (published 2009).
